Source: PMC4403255 (Genes & Development, 2015)

T1: DR6-Fc fusion (UniProt Q9EPU5 42-349)
T1 sequence (looked up): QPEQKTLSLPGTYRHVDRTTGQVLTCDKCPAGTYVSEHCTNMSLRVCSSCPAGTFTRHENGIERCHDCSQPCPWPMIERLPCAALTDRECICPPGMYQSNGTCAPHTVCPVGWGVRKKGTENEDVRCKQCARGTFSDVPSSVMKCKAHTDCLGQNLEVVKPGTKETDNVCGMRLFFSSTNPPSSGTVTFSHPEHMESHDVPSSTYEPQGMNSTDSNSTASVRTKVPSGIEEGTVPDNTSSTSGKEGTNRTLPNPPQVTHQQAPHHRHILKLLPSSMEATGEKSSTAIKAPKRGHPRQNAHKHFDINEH


Assays:
[1] = biological target: Full extracellular domain of mouse amyloid precursor protein (mouse) (UniProt P12023); test: SEC
DR6-Fc fusion = biological target: T1, DR6-Fc fusion; test: BLI

Row | Molecule | stoichiometry N [1] | Kd (DR6-Fc fusion)
1 | Full extracellular domain of mouse amyloid precursor protein (from UniProt P12023-2 18-596) (domain or fragment) | 2 | –
2 | AP-APP-E2 (amino acids 287-506), wild type (domain or fragment, UniProt P12023-2 287-506, looked up) VRVPTTAASTPDAVDKYLETPGDENEHAHFQKAKERLEAKHRERMSQVMREWEEAERQAKNLPKADKKAVIQHFQEKVESLEQEAANERQQLVETHMARVEAMLNDRRRLALENYITALQAVPPRPHHVFNMLKKYVRAEQKDRQHTLKHFEHVRMVDPKKAAQIRSQVMTHLRVIYERMNQSLSLLYNVPAVAEEIQDEVDELLQKEQNYSDDVLANMI | – | 85 nM
